Where no end group is shown, it is not given here.
B1: Phage-2533 (peptide)
peptide: PVPLCRPPWMCQSV
modifications: cysteine pairing not given here; also: fused to phage pIII, linker and fusion site not given here
notes: Clonal phage of the Peptide-180 library, tested as crude supernatant; not shown: pIII coat protein of the bacteriophage to which the peptide is fused
B2: Phage-2541 (peptide)
peptide: PTKWCIPEWMCVES
modifications: cysteine pairing not given here; also: fused to phage pIII, linker and fusion site not given here
notes: as for B1
B3: Phage-2540 (peptide)
peptide: EMKWCTPEWMCIGL
modifications: cysteine pairing not given here; also: fused to phage pIII, linker and fusion site not given here
notes: as for B1
B4: Phage-2528 (peptide)
peptide: YEKWCTPAWMCDFV
modifications: cysteine pairing not given here; also: fused to phage pIII, linker and fusion site not given here
notes: as for B1
B5: Phage-2537 (peptide)
peptide: EMKWCIPQWMCADS
modifications: cysteine pairing not given here; also: fused to phage pIII, linker and fusion site not given here
notes: as for B1
B6: Phage-2535 (peptide)
peptide: DWKWCTPAWMCSTE
modifications: cysteine pairing not given here; also: fused to phage pIII, linker and fusion site not given here
notes: as for B1
B7: Phage-2480 (peptide, not shown: large carriers)
peptide: PFKWCTPAWMCEVH
modifications: cysteine pairing not given here; also: displayed on phage as fusion to pIII, pIII and linker sequence not given here
notes: Clonal phage of the Peptide-180 optimisation library, tested as crude supernatant
B8: Phage-2531 (peptide)
peptide: YEKWCIPRWMCEAN
modifications: cysteine pairing not given here; also: fused to phage pIII, linker and fusion site not given here
notes: as for B1
B9: Phage-2538 (peptide)
peptide: EPKWCVPPWMCAYD
modifications: cysteine pairing not given here; also: fused to phage pIII, linker and fusion site not given here
notes: as for B1
B10: Phage-2539 (peptide)
peptide: LMNWCIPSWMCDVE
modifications: cysteine pairing not given here; also: fused to phage pIII, linker and fusion site not given here
notes: as for B1
B11: Phage-2532 (peptide)
peptide: EHRWCIPVWMCEKS
modifications: cysteine pairing not given here; also: fused to phage pIII, linker and fusion site not given here
notes: as for B1
B12: Phage-2481 (peptide, not shown: large carriers)
peptide: WSNWCIPPWMCAMN
modifications: cysteine pairing not given here; also: displayed on phage as fusion to pIII, pIII and linker sequence not given here
notes: as for B7
B13: Phage-2529 (peptide)
peptide: IVKWCTPHWMCSGW
modifications: cysteine pairing not given here; also: fused to phage pIII, linker and fusion site not given here
notes: as for B1
B14: Phage-2536 (peptide)
peptide: VSPKCIPPWMCSYV
modifications: cysteine pairing not given here; also: fused to phage pIII, linker and fusion site not given here
notes: as for B1
B15: Phage-2527 (peptide)
peptide: LGHWCTPPWMCTES
modifications: cysteine pairing not given here; also: fused to phage pIII, linker and fusion site not given here
notes: as for B1
B16: Phage-2478 (peptide, not shown: large carriers)
peptide: EMIRCIPDWMCMSY
modifications: cysteine pairing not given here; also: displayed on phage as fusion to pIII, pIII and linker sequence not given here
notes: as for B7
B17: Phage-2479 (peptide, not shown: large carriers)
peptide: GFPMCKPLWMCENL
modifications: cysteine pairing not given here; also: displayed on phage as fusion to pIII, pIII and linker sequence not given here
notes: as for B7
B18: Phage-2542 (peptide)
peptide: DLKWCFPDWMCQVG
modifications: cysteine pairing not given here; also: fused to phage pIII, linker and fusion site not given here
notes: as for B1
B19: Phage-2534 (peptide)
peptide: VPKWCIPVWMCEVM
modifications: cysteine pairing not given here; also: fused to phage pIII, linker and fusion site not given here
notes: as for B1
B20: Phage-2530 (peptide)
peptide: VTHWCIPEWMCVVE
modifications: cysteine pairing not given here; also: fused to phage pIII, linker and fusion site not given here
notes: as for B1

How the values were obtained:
PSMA Fab [1] = target: T1, PSMA Fab; experiment: phage binding ELISA; biotinylated PSMA Fab on neutravidin plate, clonal phage supernatant, anti-M13 HRP detection; column read as anti-PSMA Fab without PSMA antigen
T1 construct: also called Anti-PSMA Fab; 006 PSMA Fab
Experimental: (§1) Clonal phage were harvested as crude supernatants and screened via standard ELISAs. […] Prior to the addition of clonal phage. wells were incubated with blocking buffer and PSMA antigen or blocking buffer alone. Without washing or aspirating, clonal phage supernatants were then added to the wells and incubated for a short time. Wells were then washed followed by detection of bound phage using a horse radish conjugated anti-M13 antibody.

PSMA Fab [2] = target: T1, PSMA Fab; experiment: phage binding ELISA; biotinylated PSMA Fab on neutravidin plate, clonal phage supernatant, anti-M13 HRP detection; column read as anti-PSMA Fab pre-incubated with PSMA antigen as competitor
Experimental: as §1

PSMA Fab [3] = target: T2, PSMA Fab; experiment: clonal phage ELISA on biotinylated PSMA Fab captured on neutravidin plates, anti-M13-HRP detection; blocking buffer alone
T2 construct: Biotinylated and captured on neutravidin plates in the phage ELISA; also called Anti-PSMA Fab; 006 PSMA Fab
Experimental: as §1

PSMA Fab [4] = target: T3, PSMA Fab (biotinylated (site not given)); experiment: phage ELISA on captured biotinylated PSMA Fab, wells pre-incubated with PSMA antigen (competitor: PSMA); anti-M13 HRP detection
T3 construct: Biotinylated PSMA Fab captured on neutravidin plates in the phage ELISA; also called Anti-PSMA Fab; 006 PSMA Fab

PSMA Fab [5] = target: T3, PSMA Fab; experiment: phage ELISA: clonal phage supernatant on biotinylated PSMA Fab captured on neutravidin plate, blocking buffer alone; anti-M13 HRP detection;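 note: crude clonal phage supernatants added to wells preincubated with blocking buffer, incubated briefly, bound phage detected with a horseradish-conjugated anti-M13 antibody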
Experimental: as §1

Binder | phage binding ELISA signal (PSMA Fab [1]) | phage binding ELISA signal (PSMA Fab [2]) | Phage binding ELISA signal, Anti-PSMA Fab (PSMA Fab [3]) | also measured
HPQLCIPSWMCNVW [Phage-2594] | 1.05 | 0.105 |  | 
DGIWCTPRWMCEGM [Phage-2593] | 1.05 | 0.0865 |  | 
B1 |  |  | 1.16 | 
B2 |  |  | 1.15 | 
GMKWCTPEWMCQIV [Phage-2603] | 1.03 | 0.28 |  | 
HFNWCTPSWMCDVL [Phage-2592] | 1.05 | 0.118 |  | 
B3 |  |  | 1.15 | 
B4 |  |  | 1.17 | 
B5 |  |  | 1.16 | 
B6 |  |  | 1.16 | 
SVTWCIPPWMCELS [Phage-2600] | 1.04 | 0.0673 |  | 
B7 |  |  |  | Phage binding ELISA signal, Anti-PSMA Fab in presence of PSMA (PSMA Fab [4]): 0.0594; Phage binding ELISA signal, Anti-PSMA Fab (PSMA Fab [5]): 1.23
VHKWCTPAWMCEVH [Phage-2597] | 1.04 | 0.0662 |  | 
B8 |  |  | 1.16 | 
B9 |  |  | 1.16 | 
LVKWCVPDWMCQET [Phage-2598] | 1.04 | 0.0671 |  | 
LSKWCIPDWMCISS [Phage-2599] | 1.04 | 0.0618 |  | 
B10 |  |  | 1.15 | 

Binder | phage binding ELISA signal (PSMA Fab [1]) | phage binding ELISA signal (PSMA Fab [2]) | Phage binding ELISA signal, Anti-PSMA Fab (PSMA Fab [3]) | also measured
B11 |  |  | 1.16 | 
MFKWCTPSWMCERV [Phage-2596] | 1.05 | 0.176 |  | 
B12 |  |  |  | Phage binding ELISA signal, Anti-PSMA Fab in presence of PSMA (PSMA Fab [4]): 0.0771; Phage binding ELISA signal, Anti-PSMA Fab (PSMA Fab [5]): 1.23
B13 |  |  | 1.17 | 
B14 |  |  | 1.16 | 
B15 |  |  | 1.17 | 
TDKWCVPEWMCMEF [Phage-2591] | 1.05 | 0.0773 |  | 
IEKWCMPSWMCEWN [Phage-2601] | 1.03 | 0.0609 |  | 
MPRWCTPAWMCEAI [Phage-2590] | 1.05 | 0.063 |  | 
VLNWCTPPWMCLGI [Phage-2589] | 1.06 | 0.107 |  | 
ETKLCKPMWMCALL (cysteine pairing not given here; also: displayed on phage as pIII fusion) [Phage-2602] | 1.03 | 0.126 |  | 
MIGWCTPSWMCSGF [Phage-2588] | 1.06 | 0.0716 |  | 
MVKWCTPPWMCNFE [Phage-2595] | 1.05 | 0.121 |  | 
B16 |  |  |  | Phage binding ELISA signal, Anti-PSMA Fab in presence of PSMA (PSMA Fab [4]): 0.0624; Phage binding ELISA signal, Anti-PSMA Fab (PSMA Fab [5]): 1.23
B17 |  |  |  | Phage binding ELISA signal, Anti-PSMA Fab in presence of PSMA (PSMA Fab [4]): 0.0667; Phage binding ELISA signal, Anti-PSMA Fab (PSMA Fab [5]): 1.23
B18 |  |  | 1.15 | 
B19 |  |  | 1.16 | 
B20 |  |  | 1.17 | 

Source: US20260242478A1 (published 2026)
